The source of these data is patent US20160102129A1 (Novo Nordisk, published 2016).

B1: N^ε34-[2-[2-[2-[[2-[2-[2-[[(4S)-4-carboxy-4-[[(4S)-4-carboxy-4-[[(4S)-4-carboxy-4-(17-carboxyheptadecanoylamino)butanoyl]amino]butanoyl]amino]butanoyl]amino]eth … (peptide)
peptide: [Desaminohistidyl][Aib]HGTFTSDVSKYLEEQAAREFIAWLLK([Ado-Ado-γGlu-γGlu-γGlu-C18 diacid])T
notes: Named as peptide, not peptide amide (C-terminal acid)
B2: N^ε22-[(4S)-4-carboxy-4-[[(4S)-4-carboxy-4-[[2-[2-[2-[[2-[2-[2-[[(4S)-4-carboxy-4-(17-carboxyheptadecanoylamino)butanoyl]amino]ethoxy]ethoxy]acetyl]amino]ethoxy … (peptide)
peptide: [Desaminohistidyl][Aib]HGTFTSDVSKYLEK([γGlu-γGlu-AEEA-AEEA-γGlu-C18 diacid])QAAREFIAWLLKGGG
B3: N^ε36-[2-[[(2S)-2-[[(2S)-4-carboxy-2-[[2-[[(2S)-2-[[(4S)-4-carboxy-4-[[(4S)-4-carboxy-4-(17-carboxyheptadecanoylamino)butanoyl]amino]butanoyl]amino]-3-hydroxypr … (peptide)
peptide: [Desaminohistidyl][Aib]HGTFTSDYSKYLEEQAAREFIAWLLKGK([Gly-Ser-Glu-Gly-Ser-γGlu-γGlu-C18 diacid])G
B4: N^ε22-[(4S)-4-carboxy-4-[[(4S)-4-carboxy-4-[[2-[2-[2-[[2-[2-[2-[[(4S)-4-carboxy-4-(17-carboxyheptadecanoylamino)butanoyl]amino]ethoxy]ethoxy]acetyl]amino]ethoxy … (peptide)
peptide: [Desaminohistidyl][Ac4c]HGTFTSDVSKYLEK([γGlu-γGlu-AEEA-AEEA-γGlu-C18 diacid])RAAREFIAWLLKT-NH2
SMILES: CC[C@H](C)[C@H](NC(=O)[C@H](Cc1ccccc1)NC(=O)[C@H](CCC(=O)O)NC(=O)[C@H](CCCNC(=N)N)NC(=O)[C@H](C)NC(=O)[C@H](C)NC(=O)[C@H](CCCNC(=N)N)NC(=O)[C@H](CCCCNC(=O)CC[C@H](NC(=O)CC[C@H](NC(=O)COCCOCCNC(=O)COCCOCCNC(=O)CC[C@H](NC(=O)CCCCCCCCCCCCCCCCC(=O)O)C(=O)O)C(=O)O)C(=O)O)NC(=O)[C@H](CCC(=O)O)NC(=O)[C@H](CC(C)C)NC(=O)[C@H](Cc1ccc(O)cc1)NC(=O)[C@H](CCCCN)NC(=O)[C@H](CO)NC(=O)[C@@H](NC(=O)[C@H](CC(=O)O)NC(=O)[C@H](CO)NC(=O)[C@@H](NC(=O)[C@H](Cc1ccccc1)NC(=O)[C@@H](NC(=O)CNC(=O)[C@H](Cc1c[nH]cn1)NC(=O)C1(NC(=O)CCc2c[nH]cn2)CCC1)[C@@H](C)O)[C@@H](C)O)C(C)C)C(=O)N[C@@H](C)C(=O)N[C@@H](Cc1c[nH]c2ccccc12)C(=O)N[C@@H](CC(C)C)C(=O)N[C@@H](CC(C)C)C(=O)N[C@@H](CCCCN)C(=O)N[C@H](C(N)=O)[C@@H](C)O
B5: N^ε23-[2-[2-[2-[[2-[2-[2-[[(4S)-4-carboxy-4-(17-carboxyheptadecanoylamino)butanoyl]amino]ethoxy]ethoxy]acetyl]amino]ethoxy]ethoxy]acetyl]-[Imp7,Aib8,His9,Lys18, … (peptide)
peptide: [Desaminohistidyl][Aib]HGTFTSDVSKYLEGK([AEEA-AEEA-γGlu-C18 diacid])AAREFIAWLLKT-NH2
SMILES: CC[C@H](C)[C@H](NC(=O)[C@H](Cc1ccccc1)NC(=O)[C@H](CCC(=O)O)NC(=O)[C@H](CCCNC(=N)N)NC(=O)[C@H](C)NC(=O)[C@H](C)NC(=O)[C@H](CCCCNC(=O)COCCOCCNC(=O)COCCOCCNC(=O)CC[C@H](NC(=O)CCCCCCCCCCCCCCCCC(=O)O)C(=O)O)NC(=O)CNC(=O)[C@H](CCC(=O)O)NC(=O)[C@H](CC(C)C)NC(=O)[C@H](Cc1ccc(O)cc1)NC(=O)[C@H](CCCCN)NC(=O)[C@H](CO)NC(=O)[C@@H](NC(=O)[C@H](CC(=O)O)NC(=O)[C@H](CO)NC(=O)[C@@H](NC(=O)[C@H](Cc1ccccc1)NC(=O)[C@@H](NC(=O)CNC(=O)[C@H](Cc1c[nH]cn1)NC(=O)C(C)(C)NC(=O)CCc1c[nH]cn1)[C@@H](C)O)[C@@H](C)O)C(C)C)C(=O)N[C@@H](C)C(=O)N[C@@H](Cc1c[nH]c2ccccc12)C(=O)N[C@@H](CC(C)C)C(=O)N[C@@H](CC(C)C)C(=O)N[C@@H](CCCCN)C(=O)N[C@H](C(N)=O)[C@@H](C)O
B6: N^ε22-[(4S)-4-carboxy-4-[[(4S)-4-carboxy-4-[[2-[2-[2-[[2-[2-[2-[[(4S)-4-carboxy-4-(17-carboxyheptadecanoylamino)butanoyl]amino]ethoxy]ethoxy]acetyl]amino]ethoxy … (peptide)
peptide: [Desaminohistidyl][Ac4c]HGTFTSDVSKYLEK([γGlu-γGlu-AEEA-AEEA-γGlu-C18 diacid])QAAREFIAWLLKT-NH2
SMILES: CC[C@H](C)[C@H](NC(=O)[C@H](Cc1ccccc1)NC(=O)[C@H](CCC(=O)O)NC(=O)[C@H](CCCNC(=N)N)NC(=O)[C@H](C)NC(=O)[C@H](C)NC(=O)[C@H](CCC(N)=O)NC(=O)[C@H](CCCCNC(=O)CC[C@H](NC(=O)CC[C@H](NC(=O)COCCOCCNC(=O)COCCOCCNC(=O)CC[C@H](NC(=O)CCCCCCCCCCCCCCCCC(=O)O)C(=O)O)C(=O)O)C(=O)O)NC(=O)[C@H](CCC(=O)O)NC(=O)[C@H](CC(C)C)NC(=O)[C@H](Cc1ccc(O)cc1)NC(=O)[C@H](CCCCN)NC(=O)[C@H](CO)NC(=O)[C@@H](NC(=O)[C@H](CC(=O)O)NC(=O)[C@H](CO)NC(=O)[C@@H](NC(=O)[C@H](Cc1ccccc1)NC(=O)[C@@H](NC(=O)CNC(=O)[C@H](Cc1c[nH]cn1)NC(=O)C1(NC(=O)CCc2c[nH]cn2)CCC1)[C@@H](C)O)[C@@H](C)O)C(C)C)C(=O)N[C@@H](C)C(=O)N[C@@H](Cc1c[nH]c2ccccc12)C(=O)N[C@@H](CC(C)C)C(=O)N[C@@H](CC(C)C)C(=O)N[C@@H](CCCCN)C(=O)N[C@H](C(N)=O)[C@@H](C)O
B7: N^ε23-[2-[2-[2-[[2-[2-[2-[[(4S)-4-carboxy-4-(17-carboxyheptadecanoylamino)butanoyl]amino]ethoxy]ethoxy]acetyl]amino]ethoxy]ethoxy]acetyl]-[Imp7,Aib8,His9,Tyr16, … (peptide)
peptide: [Desaminohistidyl][Aib]HGTFTSDYSKYLEGK([AEEA-AEEA-γGlu-C18 diacid])AAREFIAWLLKT-NH2
SMILES: CC[C@H](C)[C@H](NC(=O)[C@H](Cc1ccccc1)NC(=O)[C@H](CCC(=O)O)NC(=O)[C@H](CCCNC(=N)N)NC(=O)[C@H](C)NC(=O)[C@H](C)NC(=O)[C@H](CCCCNC(=O)COCCOCCNC(=O)COCCOCCNC(=O)CC[C@H](NC(=O)CCCCCCCCCCCCCCCCC(=O)O)C(=O)O)NC(=O)CNC(=O)[C@H](CCC(=O)O)NC(=O)[C@H](CC(C)C)NC(=O)[C@H](Cc1ccc(O)cc1)NC(=O)[C@H](CCCCN)NC(=O)[C@H](CO)NC(=O)[C@H](Cc1ccc(O)cc1)NC(=O)[C@H](CC(=O)O)NC(=O)[C@H](CO)NC(=O)[C@@H](NC(=O)[C@H](Cc1ccccc1)NC(=O)[C@@H](NC(=O)CNC(=O)[C@H](Cc1c[nH]cn1)NC(=O)C(C)(C)NC(=O)CCc1c[nH]cn1)[C@@H](C)O)[C@@H](C)O)C(=O)N[C@@H](C)C(=O)N[C@@H](Cc1c[nH]c2ccccc12)C(=O)N[C@@H](CC(C)C)C(=O)N[C@@H](CC(C)C)C(=O)N[C@@H](CCCCN)C(=O)N[C@H](C(N)=O)[C@@H](C)O
B8: N^ε34-[2-[2-[2-[[2-[2-[2-[[(4S)-4-carboxy-4-[[(4S)-4-carboxy-4-[[(4S)-4-carboxy-4-(17-carboxyheptadecanoylamino)butanoyl]amino]butanoyl]amino]butanoyl]amino]eth … (peptide)
chain: [Desaminohistidyl]AHGTFTSDVSRYLEGRAAREFIAWLLK([Ado-Ado-γGlu-γGlu-γGlu-C18 diacid])
B9: N^ε34-[2-[2-[2-[[2-[2-[2-[[(4S)-4-carboxy-4-[[(4S)-4-carboxy-4-[[(4S)-4-carboxy-4-(17-carboxyheptadecanoylamino)butanoyl]amino]butanoyl]amino]butanoyl]amino]eth … (peptide)
peptide: [Desaminohistidyl]AHGTFTSDVSKYLEGRAAREFIAWLLK([Ado-Ado-γGlu-γGlu-γGlu-C18 diacid])GGG
B10: N^ε34-[2-[[(2S)-2-[[(2S)-4-carboxy-2-[[2-[[(2S)-2-[[(4S)-4-carboxy-4-[[(4S)-4-carboxy-4-(17-carboxyheptadecanoylamino)butanoyl]amino]butanoyl]amino]-3-hydroxypr … (peptide)
peptide: [Desaminohistidyl][Aib]HGTFTSDVSKYLEEQAAREFIAWLLK([Gly-Ser-Glu-Gly-Ser-γGlu-γGlu-C18 diacid])T
notes: as for B1

*1 amine or outer side, *2 acyl side, *3 side chain or, on linkers, in order; H or OH if unused. Where no end group is shown, it is not given here. Side-chain parts run from the residue outwards. [ ]: non-standard residue; d: D form. The star is where a group is joined. C18 diacid = O=C(O)CCCCCCCCCCCCCCCCC(=O)*; γGlu = O=C(O)[C@H](CCC(=O)[*:2])N[*:1]; Desaminohistidyl = O=C(CCc1c[nH]cn1)*; Ac4c = NC1(C(=O)O)CCC1; AEEA = NCCOCCOCC(=O)O; Aib = CC(C)(N)C(=O)O

In the first assay the target is T1, human GLP-1 receptor (human, UniProt P43220 24-463).
T1 construct: whole, on cells; reporter assay on whole cells
Put plainly: SPA displacement of [125I]GLP-1(7-36)NH2 from hGLP-1R BHK membranes. Here is the method:
The GLP-1 receptor binding of each derivatives were determined with competitive binding, displacing [¹²⁵I]GLP-1 bound to GLP-1 receptors expressed in cell membranes associated with wheat germ agglutinin (WGA) scintillation proximity assay (SPA) beads. Each derivative was added in a series of concentrations to isolated membranes comprising the human GLP-1 receptor and displacement of the labelled radioligand was monitored. The receptor binding was reported as the concentration at which half of the labelled ligand is displaced from the receptor, the IC⁵⁰ value.
1. For the receptor binding assay 50 μl of the assay buffer was added to each well of an assay plate. [0588] 2. Test compounds were serially diluted to give the following concentrations: 8×10EE-7 M, 8×10EE-8 M, 8×10EE-9 M, 8×10EE-10 M, 8×10EE-11 M, 8×10EE-12 M and 8×10EE-13 M. Twenty-five μl were added to appropriate wells in the assay plate. [0589] 3. Cell membrane aliquots were thawed and diluted to their working concentration. Fifty μl were added to each well in the assay plate. [0590] 4. WGA SPA beads were suspended in assay buffer at 20 mg/ml. The suspension was diluted to 10 mg/ml in assay buffer just prior to addition to the assay plate. Fifty μl were added to each well in the assay plate. [0591] 5. […] A 25 μl aliquot was reserved for measuring total counts/well. [0592] 6. The assay plate was incubated for 2 h at 30° C. [0593] 7. The assay plate was centrifuged for 10 min. [0594] 8. The assay plate was read in a Perkin Elmer TopCount NXT instrument.
In general terms: Loss of bound radioactivity is the signal in a displacement assay; it reports binding, not function.
For orientation: IC50 means the concentration that gives 50% inhibition. Regarding B1, the IC50 stood at 4.6 nM. That is a single-digit nanomolar value.

For B2, the IC50 was determined as 0.5 nM.

In the case of B3, the IC50 is 3.2 nM.

B4 came in with an IC50 of 0.2 nM.

The molecule B5 showed an IC50 of 1.9 nM.

Consider B6, for which the IC50 came to 0.2 nM.

Consider B7, for which the 50% inhibitory concentration (IC50) stood at 13.1 nM.

The molecule B8 had a half-maximal inhibitory concentration (IC50) of 19 nM.

B9 had a concentration for half-maximal inhibition (IC50) of 0.9 nM. This IC50 lies about 21-fold lower than the previous one.

As for B10, the IC50 amounted to 6.9 nM.

The target in the next assay is T2, human glucagon receptor (human, UniProt P47871 26-477).
T2 construct: whole, on cells; reporter assay on whole cells
T2 sequence (P47871 26-477): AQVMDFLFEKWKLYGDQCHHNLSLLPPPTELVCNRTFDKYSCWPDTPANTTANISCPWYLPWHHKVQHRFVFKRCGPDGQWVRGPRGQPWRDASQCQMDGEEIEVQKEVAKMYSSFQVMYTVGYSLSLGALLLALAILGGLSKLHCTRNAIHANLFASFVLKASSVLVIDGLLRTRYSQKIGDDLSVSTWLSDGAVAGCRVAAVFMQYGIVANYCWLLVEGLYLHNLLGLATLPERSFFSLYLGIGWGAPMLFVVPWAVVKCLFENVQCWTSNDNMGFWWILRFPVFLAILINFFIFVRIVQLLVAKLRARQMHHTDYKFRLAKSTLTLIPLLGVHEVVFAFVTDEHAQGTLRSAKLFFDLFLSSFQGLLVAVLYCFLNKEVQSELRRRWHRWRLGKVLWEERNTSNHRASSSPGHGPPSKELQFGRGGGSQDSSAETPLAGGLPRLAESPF
The experiment in a line: SPA displacement of [125I]-glucagon from human glucagon receptor BHK membranes. Here is the method: 1. For the receptor binding assay 50 μl of the assay buffer was added to each well of an assay plate. [0603] 2. Test compounds were serially diluted to give the following concentrations: 8×10EE-7 M, 8×10EE-8 M, 8×10EE-9 M, 8×10EE-10 M, 8×10EE-11 M, 8×10EE-12 M and 8×10EE-13 M. Twenty-five μl were added to appropriate wells in the assay plate. [0604] 3. Cell membrane aliquots were thawed and diluted to their working concentration. Fifty μl were added to each well in the assay plate. [0605] 4. WGA SPA beads were suspended in assay buffer at 20 mg/ml. The suspension was diluted to 10 mg/ml in assay buffer just prior to addition to the assay plate. Fifty μl were added to each well in the assay plate. [0606] 5. […] A 25 μl aliquot was reserved for measuring total counts/well. […] 6. The assay plate was incubated for 2 h at 25° C. [0608] 7. The assay plate was centrifuged for 10 min at 1500 rpm. [0609] 8. The assay plate was read in a Perkin Elmer TopCount NXT instrument.
The molecule B1 gave an IC50 of 28.1 nM.

The molecule B2 had an IC50 of 56 nM.

In the case of B3, the concentration for half-maximal inhibition (IC50) amounted to 31.1 nM.

For B4, the 50% inhibitory concentration (IC50) came to 14.1 nM.

In turn, B5 returned an IC50 of 80.2 nM.

As to B6, the IC50 was 17.9 nM.

B7 came in with an IC50 of 51 nM.

In turn, B8 had a half-maximal inhibitory concentration (IC50) of 43.4 nM. This IC50 and that of the molecule before are within 1.5-fold of each other.

For the molecule B9, the IC50 was 69.5 nM.

The molecule B10 showed a 50% inhibitory concentration (IC50) of 18.8 nM.
